Measurements as given in patent US20230330253A1.

Biological target: human claudin 18.2 (CLDN18.2) (human)
Test: cell-based or functional assay

Fluorescence, pHAb internalization on MKN45-CLDN18.2 cells, 20 nM antibody, normalized by DAR: 854
Fluorescence, pHAb internalization on MKN45-CLDN18.2 cells, 100 nM antibody, normalized by DAR: 2700
Substance: IgG (Control) (antibody)
